Here are results for six variants from PMC11711546 (2024).

The labels stand for the following.
B1: TSHZ3-HA wild-type (teashirt zinc finger homeobox 3) [human] / SOX9-Flag (SRY-box transcription factor 9) [not stated] (parent complex)
chain 1: MPRRKQQAPRRAAAYVSEELKAAALVDEGLDPEEHTADGEPSAKYMCPEKELARACPSYQNSPAAEFSCHEMDSESHISETSDRMADFESGSIKNEEETKEVTVPLEDTTVSDSLEQMKAVYNNFLSNSYWSNLNLNLHQPSSEKNNGSSSSSSSSSSSCGSGSFDWHQSAMAKTLQQVSQSRMLPEPSLFSTVQLYRQSSKLYGSIFTGASKFRCKDCSAAYDTLVELTVHMNETGHYRDDNHETDNNNPKRWSKPRKRSLLEMEGKEDAQKVLKCMYCGHSFESLQDLSVHMIKTKHYQKVPLKEPVTPVAAKIIPATRKKASLELELPSSPDSTGGTPKATISDTNDALQKNSNPYITPNNRYGHQNGASYAWHFEARKSQILKCMECGSSHDTLQELTAHMMVTGHFIKVTNSAMKKGKPIVETPVTPTITTLLDEKVQSVPLAATTFTSPSNTPASISPKLNVEVKKEVDKEKAVTDEKPKQKDKPGEEEEKCDISSKYHYLTENDLEESPKGGLDILKSLENTVTSAINKAQNGTPSWGGYPSIHAAYQLPNMMKLSLGSSGKSTPLKPMFGNSEIVSPTKNQTLVSPPSSQTSPMPKTNFHAMEELVKKVTEKVAKVEEKMKEPDGKLSPPKRATPSPCSSEVGEPIKMEASSDGGFRSQENSPSPPRDGCKDGSPLAEPVENGKELVKPLASSLSGSTAIITDHPPEQPFVNPLSALQSVMNIHLGKAAKPSLPALDPMSMLFKMSNSLAEKAAVATPPPLQSKKADHLDRYFYHVNNDQPIDLTKGKSDKGCSLGSVLLSPTSTAPATSSSTVTTAKTSAVVSFMSNSPLRENALSDISDMLKNLTESHTSKSSTPSSISEKSDIDGATLEEAEESTPAQKRKGRQSNWNPQHLLILQAQFAASLRQTSEGKYIMSDLSPQERMHISRFTGLSMTTISHWLANVKYQLRRTGGTKFLKNLDTGHPVFFCNDCASQIRTPSTYISHLESHLGFRLRDLSKLSTEQINSQIAQTKSPSEKMVTSSPEEDLGTSYQCKLCNRTFASKHAVKLHLSKTHGKSPEDHLLYVSELEKQ
chain 2: MNLLDPFMKMTDEQEKGLSGAPSPTMSEDSAGSPCPSGSGSDTENTRPQENTFPKGEPDLKKESEEDKFPVCIREAVSQVLKGYDWTLVPMPVRVNGSSKNKPHVKRPMNAFMVWAQAARRKLADQYPHLHNAELSKTLGKLWRLLNESEKRPFVEEAERLRVQHKKDHPDYKYQPRRRKSVKNGQAEAEEATEQTHISPNAIFKALQADSPHSSSGMSEVHSPGEHSGQSQGPPTPPTTPKTDVQPGKADLKREGRPLPEGGRQPPIDFRDVDIGELSSDVISNIETFDVNEFDQYLPPNGHPGVPATHGQVTYTGSYGISSTAATPASAGHVWMSKQQAPPPPPQQPPQAPPAPQAPPQPQAAPPQQPAAPPQQPQAHTLTTLSSEPGQSQRTHIKTEQLSPSHYSEQQQHSPQQIAYSPFNLPHYSPSYPPITRSQYDYTDHQNSSSYYSHAAGQGTGLYSTFTYMNPAQRPMYTPIADTSGVPSIPQTHSPQHWEQPVYTQLTRP
B2: TSHZ3-HA wild-type (teashirt zinc finger homeobox 3) [human] / MYOCD-Flag (myocardin) [not stated] (parent complex)
chain 1: B1 chain 1
chain 2: MTLLGSEHSLLIRSKFRSVLQLRLQQRRTQEQLANQGIIPPLKRPAEFHEQRKHLDSDKAKNSLKRKARNRCNSADLVNMHILQASTAERSIPTAQMKLKRARLADDLNEKIALRPGPLELVEKNILPVDSAVKEAIKGNQVSFSKSTDAFAFEEDSSSDGLSPDQTRSEDPQNSAGSPPDAKASDTPSTGSLGTNQDLASGSENDRNDSASQPSHQSDAGKQGLGPPSTPIAVHAAVKSKSLGDSKNRHKKPKDPKPKVKKLKYHQYIPPDQKAEKSPPPMDSAYARLLQQQQLFLQLQILSQQQQQQQHRFSYLGMHQAQLKEPNEQMVRNPNSSSTPLSNTPLSPVKNSFSGQTGVSSFKPGPLPPNLDDLKVSELRQQLRIRGLPVSGTKTALMDRLRPFQDCSGNPVPNFGDITTVTFPVTPNTLPNYQSSSSTSALSNGFYHFGSTSSSPPISPASSDLSVAGSLPDTFNDASPSFGLHPSPVHVCTEESLMSSLNGGSVPSELDGLDSEKDKMLVEKQKVINELTWKLQQEQRQVEELRMQLQKQKRNNCSEKKPLPFLAASIKQEEAVSSCPFASQVPVKRQSSSSECHPPACEAAQLQPLGNAHCVESSDQTNVLSSTFLSPQCSPQHSPLGAVKSPQHISLPPSPNNPHFLPSSSGAQGEGHRVSSPISSQVCTAQMAGLHSSDKVGPKFSIPSPTFSKSSSAISEVTQPPSYEDAVKQQMTRSQQMDELLDVLIESGEMPADAREDHSCLQKVPKIPRSSRSPTAVLTKPSASFEQASSGSQIPFDPYATDSDEHLEVLLNSQSPLGKMSDVTLLKIGSEEPHFDGIMDGFSGKAAEDLFNAHEILPGPLSPMQTQFSPSSVDSNGLQLSFTESPWETMEWLDLTPPNSTPGFSALTTSSPSIFNIDFLDVTDLNLNSSMDLHLQQW

In the first experiment the parent is B1. The experiment in a line: co-immunoprecipitation (anti-HA beads), Western blot densitometry; parent: 1; read off a plot.
chain 1 A65T: the response was ~1.4 SOX9-Flag / TSHZ3-HA in IP.

For the variant chain 1 P63L, the response was ~1.1 SOX9-Flag / TSHZ3-HA in IP.

With chain 1 S58G, the response was ~0.46 SOX9-Flag / TSHZ3-HA in IP.

In another experiment the parent is B2. The description is as above.
Turning to chain 1 P63L, the response was ~1.6 MYOCD-Flag / TSHZ3-HA in IP.

As to chain 1 S58G, the response is ~1.9 MYOCD-Flag / TSHZ3-HA in IP.

Regarding chain 1 A65T, the response was ~1.5 MYOCD-Flag / TSHZ3-HA in IP.
